Source: patent US20160264649A1

Experiments:
Test in all cases: cell-based or functional assay
[1] = biological target: HIV-1 Env of isolate 92TH021 (subtype AE) (HIV-1)
[2] = biological target: HIV-1 Env of isolate 92UG031 (subtype A) (HIV-1)
[3] = biological target: HIV-1 Env of isolate 92UG037 (subtype A) (HIV-1)
[4] = biological target: HIV-1 Env of isolate 92UG114 (subtype D) (HIV-1)
[5] = biological target: HIV-1 Env of isolate 92WR009 (subtype A) (HIV-1)
[6] = biological target: HIV-1 Env of isolate 92WR020 (subtype A) (HIV-1)
[7] = biological target: HIV-1 Env of isolate 92WR021 (subtype A) (HIV-1)
[8] = biological target: HIV-1 Env of isolate 92WR024 (subtype A) (HIV-1)
[9] = biological target: HIV-1 Env of isolate 92WR026 (subtype A) (HIV-1)
[10] = biological target: HIV-1 Env of isolate 93UG077 (subtype A) (HIV-1)
[11] = biological target: HIV-1 Env of isolate 93WR029 (subtype A) (HIV-1)
[12] = biological target: HIV-1 Env of isolate 94 KE 105 (subtype AC) (HIV-1)
[13] = biological target: HIV-1 Env of isolate 94UG103 (subtype A) (HIV-1)
[14] = biological target: HIV-1 Env of isolate CMU02 (subtype AE) (HIV-1)
[15] = biological target: HIV-1 Env of isolate MGRM-AE-001 (subtype AE) (HIV-1)
[16] = biological target: HIV-1 Env of isolate MGRM-AE-002 (subtype AE) (HIV-1)
[17] = biological target: HIV-1 Env of isolate MGRM-AE-003 (subtype AE) (HIV-1)
[18] = biological target: HIV-1 Env of isolate MGRM-AE-004 (subtype AE) (HIV-1)
[19] = biological target: HIV-1 Env of isolate MGRM-AE-005 (subtype AE) (HIV-1)
[20] = biological target: HIV-1 Env of isolate MGRM-AE-006 (subtype AE) (HIV-1)
[21] = biological target: HIV-1 Env of isolate MGRM-AE-007 (subtype AE) (HIV-1)
[22] = biological target: HIV-1 Env of isolate MGRM-AE-008 (subtype AE) (HIV-1)
[23] = biological target: HIV-1 Env of isolate MGRM-D-001 (subtype D) (HIV-1)
[24] = biological target: HIV-1 Env of isolate MGRM-D-002 (subtype D) (HIV-1)
[25] = biological target: HIV-1 Env of isolate MGRM-D-003 (subtype D) (HIV-1)
[26] = biological target: HIV-1 Env of isolate MGRM-D-004 (subtype D) (HIV-1)
[27] = biological target: HIV-1 Env of isolate MGRM-D-005 (subtype D) (HIV-1)
[28] = biological target: HIV-1 Env of isolate MGRM-D-008 (subtype D) (HIV-1)
[29] = biological target: HIV-1 Env of isolate MGRM-D-011 (subtype D) (HIV-1)
[30] = biological target: HIV-1 Env of isolate MGRM-D-012 (subtype D) (HIV-1)
[31] = biological target: HIV-1 Env of isolate MGRM-D-013 (subtype D) (HIV-1)
[32] = biological target: HIV-1 Env of isolate MGRM-D-014 (subtype D) (HIV-1)
[33] = biological target: HIV-1 Env of isolate MGRM-D-016 (subtype D) (HIV-1)
[34] = biological target: HIV-1 Env of isolate MGRM-D-018 (subtype D) (HIV-1)
[35] = biological target: HIV-1 Env of isolate MGRM-D-019 (subtype D) (HIV-1)
[36] = biological target: HIV-1 Env of isolate MGRM-D-020 (subtype D) (HIV-1)
[37] = biological target: HIV-1 Env of isolate MGRM-D-021 (subtype D) (HIV-1)
[38] = biological target: HIV-1 Env of isolate MGRM-D-022 (subtype D) (HIV-1)
[39] = biological target: HIV-1 Env of isolate MGRM-D-024 (subtype D) (HIV-1)
[40] = biological target: HIV-1 Env of isolate MGRM-D-026 (subtype D) (HIV-1)
[41] = biological target: HIV-1 Env of isolate MGRM-D-028 (subtype D) (HIV-1)
[42] = biological target: HIV-1 Env of isolate MGRM-D-029 (subtype D) (HIV-1)
[43] = biological target: HIV-1 Env of isolate MGRM-F1-004 (subtype F) (HIV-1)
[44] = biological target: HIV-1 Env of isolate MGRM-F1-006 (subtype F) (HIV-1)
[45] = biological target: HIV-1 Env of isolate MGRM-F1-008 (subtype F) (HIV-1)
[46] = biological target: HIV-1 Env of isolate MGRM-F1-010 (subtype F) (HIV-1)
[47] = biological target: HIV-1 Env of isolate MGRM-F1-012 (subtype F) (HIV-1)
[48] = biological target: HIV-1 Env of isolate MGRM-F1-013 (subtype F) (HIV-1)
[49] = biological target: HIV-1 Env of isolate MGRM-F1-014 (subtype F) (HIV-1)
[50] = biological target: HIV-1 Env of isolate MGRM-F1-015 (subtype F) (HIV-1)
[51] = biological target: HIV-1 Env of isolate MGRM-F1-016 (subtype F) (HIV-1)
[52] = biological target: HIV-1 Env of isolate MGRM-F1-017 (subtype F) (HIV-1)
[53] = biological target: HIV-1 Env of isolate MGRM-F1-018 (subtype F) (HIV-1)
[54] = biological target: HIV-1 Env of isolate MGRM-F1-020 (subtype F) (HIV-1)
[55] = biological target: HIV-1 Env of isolate MGRM-F1-021 (subtype F) (HIV-1)
[56] = biological target: HIV-1 Env of isolate MGRM-F1-022 (subtype F) (HIV-1)
[57] = biological target: HIV-1 Env of isolate MGRM-F1-023 (subtype F) (HIV-1)
[58] = biological target: HIV-1 Env of isolate VLGCA1 (subtype A) (HIV-1)

Chain of PGT-141 (4964_G22; 4993_K13) (antibody) (VH): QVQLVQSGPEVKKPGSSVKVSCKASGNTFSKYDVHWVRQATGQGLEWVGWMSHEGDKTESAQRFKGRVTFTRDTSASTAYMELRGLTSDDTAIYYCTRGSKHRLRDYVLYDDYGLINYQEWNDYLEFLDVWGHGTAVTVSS
Chain of PGT-141 (4964_G22; 4993_K13) (antibody) (VL): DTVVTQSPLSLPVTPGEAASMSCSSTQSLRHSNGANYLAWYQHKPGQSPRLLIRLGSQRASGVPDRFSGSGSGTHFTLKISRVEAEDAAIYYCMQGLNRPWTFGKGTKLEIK
Chain of PGT-144 (4970_K22) (antibody) (VH): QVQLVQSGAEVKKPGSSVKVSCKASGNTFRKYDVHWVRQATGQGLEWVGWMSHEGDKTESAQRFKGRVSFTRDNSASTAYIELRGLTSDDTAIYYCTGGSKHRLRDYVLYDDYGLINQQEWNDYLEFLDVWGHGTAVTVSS
Chain of PGT-144 (4970_K22) (antibody) (VL): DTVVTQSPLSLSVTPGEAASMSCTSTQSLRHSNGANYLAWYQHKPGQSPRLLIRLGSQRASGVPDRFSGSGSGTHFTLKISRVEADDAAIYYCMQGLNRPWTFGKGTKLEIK

PGT-141 (4964_G22; 4993_K13) (antibody)
IC50 (pseudovirus neutralization) [1]: 0.001 µg/mL
IC50 (pseudovirus neutralization) [2]: 0.093 µg/mL
IC50 (pseudovirus neutralization) [3]: 1.28 µg/mL
IC50 (pseudovirus neutralization) [4]: > 50 µg/mL
IC50 (pseudovirus neutralization) [5]: 0.022 µg/mL
IC50 (pseudovirus neutralization) [6]: > 50 µg/mL
IC50 (pseudovirus neutralization) [7]: > 50 µg/mL
IC50 (pseudovirus neutralization) [8]: 0.175 µg/mL
IC50 (pseudovirus neutralization) [9]: 1.78 µg/mL
IC50 (pseudovirus neutralization) [10]: > 50 µg/mL
IC50 (pseudovirus neutralization) [11]: 0.019 µg/mL
IC50 (pseudovirus neutralization) [12]: 0.204 µg/mL
IC50 (pseudovirus neutralization) [13]: > 50 µg/mL
IC50 (pseudovirus neutralization) [14]: > 50 µg/mL
IC50 (pseudovirus neutralization) [15]: > 50 µg/mL
IC50 (pseudovirus neutralization) [16]: > 50 µg/mL
IC50 (pseudovirus neutralization) [17]: > 50 µg/mL
IC50 (pseudovirus neutralization) [18]: 0.001 µg/mL
IC50 (pseudovirus neutralization) [19]: > 50 µg/mL
IC50 (pseudovirus neutralization) [20]: > 50 µg/mL
IC50 (pseudovirus neutralization) [21]: 33.1 µg/mL
IC50 (pseudovirus neutralization) [22]: 0.101 µg/mL
IC50 (pseudovirus neutralization) [23]: > 50 µg/mL
IC50 (pseudovirus neutralization) [24]: > 50 µg/mL
IC50 (pseudovirus neutralization) [25]: > 50 µg/mL
IC50 (pseudovirus neutralization) [26]: > 50 µg/mL
IC50 (pseudovirus neutralization) [27]: 5.15 µg/mL
IC50 (pseudovirus neutralization) [28]: 0.371 µg/mL
IC50 (pseudovirus neutralization) [29]: > 50 µg/mL
IC50 (pseudovirus neutralization) [30]: > 50 µg/mL
IC50 (pseudovirus neutralization) [31]: 0.179 µg/mL
IC50 (pseudovirus neutralization) [32]: 0.01 µg/mL
IC50 (pseudovirus neutralization) [33]: > 50 µg/mL
IC50 (pseudovirus neutralization) [34]: > 50 µg/mL
IC50 (pseudovirus neutralization) [35]: 1.66 µg/mL
IC50 (pseudovirus neutralization) [36]: > 50 µg/mL
IC50 (pseudovirus neutralization) [37]: > 50 µg/mL
IC50 (pseudovirus neutralization) [38]: > 50 µg/mL
IC50 (pseudovirus neutralization) [39]: > 50 µg/mL
IC50 (pseudovirus neutralization) [40]: 32.5 µg/mL
IC50 (pseudovirus neutralization) [41]: > 50 µg/mL
IC50 (pseudovirus neutralization) [42]: 0.057 µg/mL
IC50 (pseudovirus neutralization) [43]: 0.021 µg/mL
IC50 (pseudovirus neutralization) [44]: 8.99 µg/mL
IC50 (pseudovirus neutralization) [45]: 0.193 µg/mL
IC50 (pseudovirus neutralization) [46]: > 50 µg/mL
IC50 (pseudovirus neutralization) [47]: > 50 µg/mL
IC50 (pseudovirus neutralization) [48]: 0.043 µg/mL
IC50 (pseudovirus neutralization) [49]: 0.001 µg/mL
IC50 (pseudovirus neutralization) [50]: > 50 µg/mL
IC50 (pseudovirus neutralization) [51]: > 50 µg/mL
IC50 (pseudovirus neutralization) [52]: 30.8 µg/mL
IC50 (pseudovirus neutralization) [53]: 0.785 µg/mL
IC50 (pseudovirus neutralization) [54]: 1.15 µg/mL
IC50 (pseudovirus neutralization) [55]: > 50 µg/mL
IC50 (pseudovirus neutralization) [56]: 0.114 µg/mL
IC50 (pseudovirus neutralization) [57]: 0.307 µg/mL
IC50 (pseudovirus neutralization) [58]: 2.07 µg/mL

PGT-144 (4970_K22) (antibody)
IC50 (pseudovirus neutralization) [1]: 0.052 µg/mL
IC50 (pseudovirus neutralization) [2]: 2.17 µg/mL
IC50 (pseudovirus neutralization) [3]: 8.24 µg/mL
IC50 (pseudovirus neutralization) [4]: > 50 µg/mL
IC50 (pseudovirus neutralization) [5]: 0.893 µg/mL
IC50 (pseudovirus neutralization) [6]: > 50 µg/mL
IC50 (pseudovirus neutralization) [7]: > 50 µg/mL
IC50 (pseudovirus neutralization) [8]: 16.3 µg/mL
IC50 (pseudovirus neutralization) [9]: 32.7 µg/mL
IC50 (pseudovirus neutralization) [10]: > 50 µg/mL
IC50 (pseudovirus neutralization) [11]: 4.39 µg/mL
IC50 (pseudovirus neutralization) [12]: 0.29 µg/mL
IC50 (pseudovirus neutralization) [13]: > 50 µg/mL
IC50 (pseudovirus neutralization) [14]: > 50 µg/mL
IC50 (pseudovirus neutralization) [15]: > 50 µg/mL
IC50 (pseudovirus neutralization) [16]: > 50 µg/mL
IC50 (pseudovirus neutralization) [17]: > 50 µg/mL
IC50 (pseudovirus neutralization) [18]: 0.104 µg/mL
IC50 (pseudovirus neutralization) [19]: > 50 µg/mL
IC50 (pseudovirus neutralization) [20]: > 50 µg/mL
IC50 (pseudovirus neutralization) [21]: > 50 µg/mL
IC50 (pseudovirus neutralization) [22]: 3.55 µg/mL
IC50 (pseudovirus neutralization) [23]: > 50 µg/mL
IC50 (pseudovirus neutralization) [24]: > 50 µg/mL
IC50 (pseudovirus neutralization) [25]: > 50 µg/mL
IC50 (pseudovirus neutralization) [26]: > 50 µg/mL
IC50 (pseudovirus neutralization) [27]: 14.8 µg/mL
IC50 (pseudovirus neutralization) [28]: 9.85 µg/mL
IC50 (pseudovirus neutralization) [29]: > 50 µg/mL
IC50 (pseudovirus neutralization) [30]: > 50 µg/mL
IC50 (pseudovirus neutralization) [31]: > 50 µg/mL
IC50 (pseudovirus neutralization) [32]: 0.113 µg/mL
IC50 (pseudovirus neutralization) [33]: > 50 µg/mL
IC50 (pseudovirus neutralization) [34]: > 50 µg/mL
IC50 (pseudovirus neutralization) [35]: > 50 µg/mL
IC50 (pseudovirus neutralization) [36]: > 50 µg/mL
IC50 (pseudovirus neutralization) [37]: > 50 µg/mL
IC50 (pseudovirus neutralization) [38]: > 50 µg/mL
IC50 (pseudovirus neutralization) [39]: > 50 µg/mL
IC50 (pseudovirus neutralization) [40]: > 50 µg/mL
IC50 (pseudovirus neutralization) [41]: > 50 µg/mL
IC50 (pseudovirus neutralization) [42]: 0.459 µg/mL
IC50 (pseudovirus neutralization) [43]: 0.105 µg/mL
IC50 (pseudovirus neutralization) [44]: 20.6 µg/mL
IC50 (pseudovirus neutralization) [45]: 0.507 µg/mL
IC50 (pseudovirus neutralization) [46]: > 50 µg/mL
IC50 (pseudovirus neutralization) [47]: > 50 µg/mL
IC50 (pseudovirus neutralization) [48]: 0.509 µg/mL
IC50 (pseudovirus neutralization) [49]: 0.014 µg/mL
IC50 (pseudovirus neutralization) [50]: > 50 µg/mL
IC50 (pseudovirus neutralization) [51]: > 50 µg/mL
IC50 (pseudovirus neutralization) [52]: > 50 µg/mL
IC50 (pseudovirus neutralization) [53]: > 50 µg/mL
IC50 (pseudovirus neutralization) [54]: 8.93 µg/mL
IC50 (pseudovirus neutralization) [55]: > 50 µg/mL
IC50 (pseudovirus neutralization) [56]: 0.382 µg/mL
IC50 (pseudovirus neutralization) [57]: 1.16 µg/mL
IC50 (pseudovirus neutralization) [58]: > 50 µg/mL
